Data published in the supplement of paper PMC10126150.
± gives the standard deviation of the averaged measurements.

Tested on: ATP
Assay: switch fluorescence ratio, 500 uM ATP over buffer (Cy3 cluster intensity, sum of 5 cycles each) (fold (ratio)); higher = stronger signal-on switching upon ATP binding; sequences stand for … in TCGTCGGCAGCGTCAGATGTGTATAAGAGACAGTTTTTTTTTTTTTTTTTTTTTTTTT…TC
Conditions: aptamer strand: ATP DNA aptamer (quencher-CACCTGGGGGAGTATTGCGGAGGAAGG + anchor), 100 nM annealed; ATP concentration: 500 uM
Method in brief: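 Values give the fluorescence ratio for each switch-domain sequence, averaged from per-cluster ratios of summed target-cycle to summed buffer-cycle Cy3 intensity. The Cy3-labelled switching-strand clusters sat on a modified Illumina MiSeq flow-cell, were annealed to 100 nM quencher-labelled ATP aptamer, and were imaged in selection buffer, then after 15 min with 500 uM ATP at 22 °C. Five cycles ran with NaOH stripping and re-annealing between them, and clusters outside 100-1000 RFU were excluded.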
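Note: ATP exposure 15 min at 22 °C before imaging.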

Sequence	switch fluorescence ratio
CTGGACGGTG	1.032 ± 0.0042
CTGGACTGGT	0.989 ± 0.012
CTGGAGGGGA	1.04 ± 0.034
CTGGATAGCG	0.981 ± 0.044
CTGGCAAGGT	1.09 ± 0.031
CTGGCATTTT	0.9936 ± 0.0054
CTGGCGAGCG	1.03 ± 0.011
CTGGCGGTCC	1.028 ± 0.0066
CTGGGAATGG	1.12 ± 0.11
CTGGGAATTG	1.05 ± 0.043
CTGGGACTGA	1.02 ± 0.03
CTGGGAGGGG	1.01 ± 0.029
CTGGGAGGTG	1.03 ± 0.055
CTGGGAGTAC	1.04 ± 0.051
CTGGGGACGT	0.9821 ± 0.0081
CTGGGGAGAG	1.01 ± 0.026
CTGGGGAGCT	1.03 ± 0.05
CTGGGGAGTG	0.977 ± 0.029
CTGGGGATGG	0.995 ± 0.02
CTGGGGGACG	1.02 ± 0.016
CTGGGGGCGA	1.04 ± 0.012
CTGGGGGCGG	0.986 ± 0.018
CTGGGGGGAT	0.987 ± 0.021
CTGGGGGGCA	0.997 ± 0.017
CTGGGGGGCC	1.01 ± 0.038

Sequence	switch fluorescence ratio
CTGGGGGGCG	0.984 ± 0.066
CTGGGGGGTT	0.994 ± 0.019
CTGGGGGTCG	1 ± 0.025
CTGGGGTAAG	1.01 ± 0.042
CTGGGGTACT	1.08 ± 0.056
CTGGGGTGGG	1.01 ± 0.042
CTGGGGTTAC	1.77 ± 1
CTGGGGTTTC	0.997 ± 0.026
CTGGGTAACG	0.996 ± 0.034
CTGGGTAATT	1.04 ± 0.059
CTGGGTTAGT	1.03 ± 0.035
CTGGGTTCTC	0.989 ± 0.016
CTGGTAAATC	1.02 ± 0.026
CTGGTAATGG	1.04 ± 0.033
CTGGTAGGGG	0.983 ± 0.015
CTGGTCAGGG	0.988 ± 0.013
CTGGTCGGGC	0.982 ± 0.012
CTGGTCGGGG	1.017 ± 0.0096
CTGGTGACTG	0.986 ± 0.096
CTGGTGCATT	1.21 ± 0.11
CTGGTTATAG	0.989 ± 0.028
CTGGTTATCG	0.9998 ± 0.0032
CTGGTTCGGT	1.01 ± 0.037
CTGGTTCTTC	0.95 ± 0.022
CTGTAAGGTC	1.01 ± 0.019

Sequence	switch fluorescence ratio
CTGTAATCGT	0.9595 ± 0.0086
CTGTAATTAT	1 ± 0.011
CTGTAGTCGG	1.02 ± 0.03
CTGTATATCT	1.02 ± 0.022
CTGTATGAGT	0.9879 ± 0.0037
CTGTATGCGG	1.02 ± 0.089
CTGTCAAGAT	1.02 ± 0.024
CTGTCAGATG	1 ± 0.025
CTGTCCGGTA	1.056 ± 0.008
CTGTCGTAAA	1.07 ± 0.019
CTGTCGTTTC	0.975 ± 0.044
CTGTCTGGTG	1.025 ± 0.0087
CTGTCTTATG	1 ± 0.068
CTGTGCAGTC	1.26 ± 0.075
CTGTGGACCG	0.974 ± 0.017
CTGTGGCAGC	1.033 ± 0.0099
CTGTGGCTTT	1.016 ± 0.0096
CTGTGGGGCG	1.01 ± 0.045
CTGTGGGGGC	1.01 ± 0.016
CTGTGGTTTT	0.98 ± 0.034
CTGTGTGGAG	0.991 ± 0.013
CTGTGTGGGA	1.01 ± 0.013
CTGTGTTGGT	0.992 ± 0.022
CTGTTACTGA	0.999 ± 0.041
CTGTTACTGC	1 ± 0.031

Sequence	switch fluorescence ratio
CTGTTAGGGA	0.958 ± 0.03
CTGTTATCGC	1.01 ± 0.042
CTGTTATTGT	0.972 ± 0.024
CTGTTCGGCG	0.979 ± 0.042
CTGTTGGAAT	0.978 ± 0.025
CTGTTTAGGA	1.02 ± 0.053
CTGTTTAGTG	0.9822 ± 0.0061
CTGTTTCGGT	0.962 ± 0.021
CTGTTTGTGA	0.995 ± 0.011
CTTAAAGTTT	0.983 ± 0.041
CTTAACTTGA	1 ± 0.025
CTTAAGGGAA	0.9915 ± 0.0065
CTTAAGGGAT	1.0149 ± 0.00017
CTTAAGGGCC	1.02 ± 0.012
CTTAATAGAC	2.44 ± 1.9
CTTAATCGGC	1.09 ± 0.11
CTTACGGGAA	1.15 ± 0.1
CTTACGTGCC	1 ± 0.036
CTTACTGCAT	1.27 ± 0.068
CTTAGCTCTT	1.03 ± 0.022
CTTAGGAGGT	0.987 ± 0.025
CTTAGGGGGC	1.01 ± 0.051
CTTAGGTTGT	1.004 ± 0.0077
CTTAGTCAGC	1.06 ± 0.099
CTTATAAATT	0.999 ± 0.021
